The results in this text go back to the nanobody polyreactivity screen of Harvey et al. (2022).

The data set is described as follows: yeast display, Sf9 membrane polyspecificity reagent, FACS + sequencing; frameworks hold sequencing errors. The method in brief: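 After 36–48 hours of galactose induction, yeast (Saccharomyces cerevisiae BJ5465) displaying a synthetic nanobody library were stained at 4 °C for 1 hour with 10% biotinylated, detergent-solubilized Sf9 membrane reagent. Streptavidin microbeads enriched the stained cells before FACS sorting into low and high (top ~1%) gates on anti-HA and streptavidin fluorescence. Each clone's polyreactivity label reflects its gate of origin.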
Turning to “QVQLVESGGGLVQAGGSLRLSCAASGSIFVYNAMGWYRQAPGKEREFVAAISWSVGRTYYADSVKGRFTFSRDNEKNTVYLQMNSLKPEDNAVYYCNAEFVAWYYYEEHDGDYWGQGTQVTVSS”, the “polyreactivity (PSR sort gate)” value is given as “high polyreactivity”.

For the sequence “QVQLVESGGGLVQAGGSLRLSCAASGSIFVYNAMGWYRQAPGKERELVAAIDTVGSTNYADSVKGRFTISRDNAKNTVYLQMNSLNPEDSAVYYCAVVTPYWSFYEQVIPSNYWGQGTQVSVSS”, the “polyreactivity (PSR sort gate)” value is listed as “low polyreactivity”.

Regarding “QVQLVESGGGLVQAGGSLRLSCAASGSIFVYNAMGWYRQAPGKERELVAAISSTGGSTYYADSVKGRFTISRDNAKNTVYLQMNSLKPEDTAVYYCARQGRYTRGDYWGQGTQVTVSS”, the “polyreactivity (PSR sort gate)” value is on record as “high polyreactivity”.

Regarding “QVQLVESGGGLVQAGGSLRLSCAASGSIFVYNAMGWYRQAPGKERELVARITGRGGRTYYADSVKGRFTISRDNAKNTVYLQMNSLKPEDTAVYYCAAAKYGDYRGSPYKYGYWGQGTQVTVSS”, the “polyreactivity (PSR sort gate)” value is recorded as “high polyreactivity”.

Turning to “QVQLVESGGGLVQAGGSLRLSCAASGSIFVYYAMGWYRQAPGKERELVAAIDVSDGGTYYAESVKGRFTISRDNAKNTVYLQMNSLKPEVTAVYYCAADQGIDVPYIGYDYWGQGTQVTVSS”, the “polyreactivity (PSR sort gate)” value is “high polyreactivity”.

In the case of “QVQLVESGGGLVQAGGSLRLSCAASGSIFVYYAMGWYRQAPGKERELVAGISRTGGRTYYADSVKGRFTISRDNAKITVYLQMNSLKPEDTAVYYCAAVSYYKSYGEFDYWGQGTQVTVSS”, the “polyreactivity (PSR sort gate)” value is recorded as “high polyreactivity”.

For the sequence “QVQLVESGGGLVQAGGSLRLSCAASGSIFVYYAMGWYRQAPGKERELVARIRIGGSTNYADSVKGRFTISRDNAKNTVYLQMNSLKPEDTAVYYCIKYSVLSRQRYSHPVNYDSWGQGTQVTVSS”, the “polyreactivity (PSR sort gate)” value was “high polyreactivity”.

Consider “QVQLVESGGGLVQAGGSLRLSCAASGSIFVYYVMGWYRQAPGKERELVAAISSGGRTYYADSVKGRFTISRDNAKNTVYLQMNSLKPEDTAVYYCAAVWYWTQDYDYWGQGTQVTVSS”, for which the “polyreactivity (PSR sort gate)” value was “low polyreactivity”.

For “QVQLVESGGGLVQAGGSLRLSCAASGSIFWAYTMGWYRQAPGKERELVAAISASGGSTYYADSVKGRFTISRDNAKNTVYFQMNSLKPEDTAVYYCAAVYDLGYYGPIWAIVLDDYWGQGTQVTVSS”, the “polyreactivity (PSR sort gate)” value is “low polyreactivity”.

For the sequence “QVQLVESGGGLVQAGGSLRLSCAASGSIFWFNAMGWYRQAPGKERELVAAISTGGGTNYADSVKGRFTISRDNAKNTLYLKMNSLKPEDTAVYYCATYKVSRYISYDYWGQGPQVTVSS”, the “polyreactivity (PSR sort gate)” value is recorded as “low polyreactivity”.

Consider “QVQLVESGGGLVQAGGSLRLSCAASGSIFWFYAMGWYRQAPGKERELVAAITSTGGTYYADSVKGRFTISRDNAKNTVYLQMNSLKPEDTAVYYCAADRIGGPGSYLYDYWGQGTQVTVSS”, for which the “polyreactivity (PSR sort gate)” value is “low polyreactivity”.

For the sequence “QVQLVESGGGLVQAGGSLRLSCAASGSIFWFYGMGWYRQAPGKERELVAAISWSGGNTYADSVKGRFTISRDNAKNTVYVQMNSLKPEDTAVYYCNAVVRAYYTSIWVPRYDYWGQGTQVTVSS”, the “polyreactivity (PSR sort gate)” value is given as “high polyreactivity”.

As for “QVQLVESGGGLVQAGGSLRLSCAASGSIFWGNAMGWYRQAPGKERELVAAIRRGTSTYYADSVKGRFTISRDNAKNTVYVQMNSLKPEDTAVYYCAASPFRYVYHFDYWGQGTQVTVSS”, the “polyreactivity (PSR sort gate)” value was “high polyreactivity”.

As to “QVQLVESGGGLVQAGGSLRLSCAASGSIFWGYAMGWNRQAPRKEREMVATITYGGDSTYYADSVKGRFTISRDNAKNTVYLQMNSLKPEDTAVYYCNVGVEPYDYVYWGQGTQVTVSS”, the “polyreactivity (PSR sort gate)” value is on record as “low polyreactivity”.

Turning to “QVQLVESGGGLVQAGGSLRLSCAASGSIFWGYAMGWYRQAPGKERELVAVISRGGSTYYADSVKGRFTISRDNAKNTVYLQMNSLKPEDTAVYYCADSSSWFYSPEYDYWGQGTQVTVSS”, the “polyreactivity (PSR sort gate)” value is “low polyreactivity”.

For the sequence “QVQLVESGGGLVQAGGSLRLSCAASGSIFWGYDMGWYRQAPGKERELVASISYSGGSTSYADSVKGRFTISRDNAKNTVYLQMNSLKPEDTAVYYCAADEGGFWWTYPYDSWGQGTQVTVSS”, the “polyreactivity (PSR sort gate)” value was “low polyreactivity”.

As to “QVQLVESGGGLVQAGGSLRLSCAASGSIFWKNVMGWYRHAPGKERELVAGISQNGGSTTYADSVKGRFTISRDNAKNTVYLQMNSLKPEDTAVYYCAAKRYGPFKYGYWGQGTQVTVSS”, the “polyreactivity (PSR sort gate)” value is given as “high polyreactivity”.

For the sequence “QVQLVESGGGLVQAGGSLRLSCAASGSIFWLYAMGWYRQAPGKERELVAAISWSGTSTNYADSVKGRFTISRDNAKNTVYLQMNSLKPEDTAVYYCAAKWHVRGRGARYRYDYDYWGQGTQVTVSS”, the “polyreactivity (PSR sort gate)” value is listed as “low polyreactivity”.

“QVQLVESGGGLVQAGGSLRLSCAASGSIFWNNAMGWYRQAPGKERELVAGISSAGSTNYADSVKGRFTISRDNAKNTVYLQMNILKPEDTAVYYCAAVYYGGFSDYDYWGQGTQVTVSS”: the “polyreactivity (PSR sort gate)” value was “low polyreactivity”.

For the sequence “QVQLVESGGGLVQAGGSLRLSCAASGSIFWPNAMGWYRQAPGKERELVAAISWGTGSTYYADSVKGRFTISRDNAKNTVYLQMNSLKPEDTAVYYCAADGAYLDPYYDYWGQGTQVTVLS”, the “polyreactivity (PSR sort gate)” value is on record as “low polyreactivity”.

As to “QVQLVESGGGLVQAGGSLRLSCAASGSIFWPYAMGWYRQAPGKDRELVATITWTGGSTYYADSVKGRFTISRDNAKNTVYLQMNSLKPEDTAVYYCAAAGYYGYGYDYWGQGTQVTVSS”, the “polyreactivity (PSR sort gate)” value is on record as “low polyreactivity”.

As for “QVQLVESGGGLVQAGGSLRLSCAASGSIFWPYAMGWYRQAPGKERELVAAITWSGSSTYYADSVKGRFTISRDNAKNTVYLQMKSLKPEDTAVYYCAKRGWGIYDYWGQGTQVTVSS”, the “polyreactivity (PSR sort gate)” value is “low polyreactivity”.

In the case of “QVQLVESGGGLVQAGGSLRLSCAASGSIFWPYAMGWYRQAPGKERELVAGISRSGGITYYADSVKGRFTISRDNAKNTVYLQMNSLKPEDTAVYYCARYQEWRQEYDYWGQGTQVTVSS”, the “polyreactivity (PSR sort gate)” value was “high polyreactivity”.

Regarding “QVQLVESGGGLVQAGGSLRLSCAASGSIFWRNAMGWYRQAPGKERELVAAITSGGTTNYADSVKGRFTISRDNAKNTVYLQMISLIPEDTAVYYCATGASYLRRYDHPHSDVDYWGQGTQVTVSS”, the “polyreactivity (PSR sort gate)” value is given as “low polyreactivity”.

In the case of “QVQLVESGGGLVQAGGSLRLSCAASGSIFWSNAMGWYRPATGKERELVAAISSGGSTYADSVKGRFTISRDNAKNTVYLQMNSLKPVDTAVYYCNADVLYGDYYRGGYWGQGTQVTVSS”, the “polyreactivity (PSR sort gate)” value is reported as “low polyreactivity”.

For the sequence “QVQLVESGGGLVQAGGSLRLSCAASGSIFWSNAMGWYRQAPGKEREFVAAITWSGDNTYYADSVKGRFTISRDNAKNTVYLQMNSLKPEDTAVYYCAASGDYYWDEGDYWGQGTQVTVSS”, the “polyreactivity (PSR sort gate)” value was “low polyreactivity”.

Consider “QVQLVESGGGLVQAGGSLRLSCAASGSIFWSNAMGWYRQAPGKEREFVATITNGTTTNYADSVKGRFTISRDNAKNTVYLQMNSLKPEDTAVYYCAVTGVYVKYDYWGQGTQVTVSS”, for which the “polyreactivity (PSR sort gate)” value is recorded as “low polyreactivity”.

Consider “QVQLVESGGGLVQAGGSLRLSCAASGSIFWTNAMGWYRQAPGKERELVAAITSGGNTNYADSVKGRFTISRDNAKNTVYLQMNSLKPEDTAVYYCAARYGRGWRRTYTQYDSWGQGTQVTVSS”, for which the “polyreactivity (PSR sort gate)” value is recorded as “low polyreactivity”.

In the case of “QVQLVESGGGLVQAGGSLRLSCAASGSIFWTYAMGWYRQAPGKERELVAGIRWSGGTTYADSVKGRFTISRDNAKNTVYLQMNSLKPEDTAVYYCNHYLSTYHGTFTYGYWGQGTQVTVSS”, the “polyreactivity (PSR sort gate)” value is recorded as “low polyreactivity”.

Turning to “QVQLVESGGGLVQAGGSLRLSCAASGSIFWVYAMGWSRQAPGKERELVAAISNSGSTNYADSVKGRFTISRDNAKNTVYLQMNSLKPEDTAVYYCAKDSLVDHVGGYDYWGQGTQVTVSS”, the “polyreactivity (PSR sort gate)” value is listed as “low polyreactivity”.

Regarding “QVQLVESGGGLVQAGGSLRLSCAASGSIFWVYAMGWYRPAPGKERELVAGISSGGSTNYADSVKGRCTISRDTAKKTVYLQMNSLKPEDTAVYYCAAVIRTVRERYGYWGQGTQVTVSS”, the “polyreactivity (PSR sort gate)” value is reported as “high polyreactivity”.

As to “QVQLVESGGGLVQAGGSLRLSCAASGSIFWVYVMGWYRQAPGKEREFVAAISSSGGRTYYADSVKGRFTISRDNAKNTVYLQMNRLKPEDTAVYYCAARRYWWYSASAMDYWGQGTQVTVSS”, the “polyreactivity (PSR sort gate)” value is “high polyreactivity”.

Take “QVQLVESGGGLVQAGGSLRLSCAASGSIFWWNAMGWYRQAPGKERELVAAISYSGGSTYYADSVKGRFTISRDNAKKTVYLQRNSLKPEDTAVYYCAATKFRYYGYDYWGQGTQVTVSS”: the “polyreactivity (PSR sort gate)” value is “low polyreactivity”.

Regarding “QVQLVESGGGLVQAGGSLRLSCAASGSIFWWNAMGWYRQAPGKERELVAGITKIGSSTYYADSVKGRFTISRDNAKNTVYLQMNSLKPEDTAVYYCNAYGPNIYSSRYDYWGQGTQVTVSS”, the “polyreactivity (PSR sort gate)” value is recorded as “low polyreactivity”.

As for “QVQLVESGGGLVQAGGSLRLSCAASGSIFWWYAMGWYRQAPGKERELVAAIRWSGTTTFYADSLKGRFTISRDNAKNNVFLQMKSLKPEDTAVYYCNAEGGIWGVTSGYDYWGQGTQVTVSS”, the “polyreactivity (PSR sort gate)” value is given as “low polyreactivity”.

For “QVQLVESGGGLVQAGGSLRLSCAASGSIFWYNAMGWSRPAPGKERELVAAITWSGGSTYYADSVKGRFTISRDNAKNTVYLQMNSLKPEDTAVYYCATVPHYYYDYDYWGQGTQVTVSS”, the “polyreactivity (PSR sort gate)” value was “low polyreactivity”.

For “QVQLVESGGGLVQAGGSLRLSCAASGSIFWYNAMGWYRQAPGKESELVAAISWDGGSTYYADSVKGRFTISRDNAKNTVYLQMNSLKPEDTAVYYCNRVYIVWYTRYVVSGWYDYWGQGTEVTVSS”, the “polyreactivity (PSR sort gate)” value was “high polyreactivity”.

For the sequence “QVQLVESGGGLVQAGGSLRLSCAASGSIFWYYAMGWYRQAPGKERELVADITSTGGSTYYADSVKGRFTISRDNAKNTVYLQMNSLKPEDTAVYYCAADNTYSEEDYWGQGTQVNVSS”, the “polyreactivity (PSR sort gate)” value is listed as “high polyreactivity”.

“QVQLVESGGGLVQAGGSLRLSCAASGSIFWYYAMGWYRQAPGKERELVARITYSSGSTYYADSVKGRFTISRDNAKNTVYLQMNSLKPEDTAVFYCAVRLYSYLYNPFNYWGQGTQVTVSS”: the “polyreactivity (PSR sort gate)” value is recorded as “high polyreactivity”.

“QVQLVESGGGLVQAGGSLRLSCAASGSIFWYYAMGWYRQAPGKERELVATIRKRSGSTYYADSVKGRFTISRDNAKNTVYLQMNSLKPEDTAVYYCAADYTAYGYDYWGQGTQVTVSS”: the “polyreactivity (PSR sort gate)” value is listed as “low polyreactivity”.

In the case of “QVQLVESGGGLVQAGGSLRLSCAASGSIFWYYTMGWYRQAPGKERELVATITRSGSRTYYADSVKGRFTISRDNAKNTVYLQMNSLNPEDTAVYYCAKDFGRWTYDYWGQATQVTVSS”, the “polyreactivity (PSR sort gate)” value is “low polyreactivity”.
